From patent US20240148892A1 (DUALITY BIOLOGICS SUZHOU, published 2024)

Experiments:
Assay in all cases: ELISA, B7 family protein immobilized on plate, serially diluted antibody
Human PD-L1, His Tag = biological target: T1, Human PD-L1, His Tag (human, UniProt Q9NZQ7 19-238)
T1 construct: Bought protein; also called human PD-L1 protein; ACRO PD1-H5229; not shown: His tag
Procedure: (§1) Human PD-Ll protein (see the table above), human B7-H2 protein, human B7-H3 protein, human B7-H4 protein, human B7-H5 protein, human B7-H6 protein, human B7-1 protein, human B7-2 protein, human PD-L2 protein, human B7-H7 protein, and human BTNL2 protein were separately immobilized on 96-well plates by incubation at 4° C. overnight. The 96-well plates were then blocked by incubation with 1% BSA in PBS at 37° C. for 1 h. After blocking, the 96-well plates were washed 3 times with PBST (PBS containing 0.05% Tween 20). […] After incubation, the 96-well plates were washed 3 times with PBST, incubated with a secondary antibody (see the table above) in binding buffer at 37° C. for 1 h, and then washed again. TMB was added for color development, and the reaction was stopped by 1 M H₂SO₄.

Human B7-H2, His Tag = biological target: T2, Human B7-H2, His Tag (human, UniProt O75144 19-258)
T2 construct: Bought protein; also called human B7-H2 protein; ACRO B72-H5221; not shown: His tag
T2 sequence (looked up): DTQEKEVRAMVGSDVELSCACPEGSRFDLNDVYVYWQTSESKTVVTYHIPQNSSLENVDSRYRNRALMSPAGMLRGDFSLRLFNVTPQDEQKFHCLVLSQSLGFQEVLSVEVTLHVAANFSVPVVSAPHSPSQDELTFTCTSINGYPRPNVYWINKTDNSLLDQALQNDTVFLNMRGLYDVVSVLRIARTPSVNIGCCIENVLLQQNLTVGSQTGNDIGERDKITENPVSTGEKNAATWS
Procedure: as §1

Human B7-H5, His Tag = biological target: T3, Human B7-H5, His Tag (human, UniProt Q9H7M9 33-194)
T3 construct: Bought protein; also called human B7-H5 protein; ACRO B75-H52H0; not shown: His tag
T3 sequence (looked up): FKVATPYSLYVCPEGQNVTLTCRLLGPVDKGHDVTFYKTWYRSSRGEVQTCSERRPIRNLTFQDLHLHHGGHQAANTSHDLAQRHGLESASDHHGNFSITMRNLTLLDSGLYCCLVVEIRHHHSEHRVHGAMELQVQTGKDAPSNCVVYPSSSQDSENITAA
Procedure: as §1

Human B7-H6 = biological target: T4, Human B7-H6 (human, UniProt Q68D85 25-262)
T4 construct: Bought protein; also called human B7-H6 protein; ACRO B76-H52H8
T4 sequence (looked up): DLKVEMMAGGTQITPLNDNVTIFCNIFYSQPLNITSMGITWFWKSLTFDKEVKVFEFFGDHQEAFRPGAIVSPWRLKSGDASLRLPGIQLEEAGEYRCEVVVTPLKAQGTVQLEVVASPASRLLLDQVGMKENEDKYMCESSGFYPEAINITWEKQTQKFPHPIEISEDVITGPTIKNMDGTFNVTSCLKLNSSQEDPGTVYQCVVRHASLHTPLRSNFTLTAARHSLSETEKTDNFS
Procedure: as §1

[1] = biological target: T5, Human B7-1 protein, His Tag (human, UniProt P33681 35-242)
T5 construct: Bought protein; also called ACRO B71-H5228; not shown: His tag
T5 sequence (looked up): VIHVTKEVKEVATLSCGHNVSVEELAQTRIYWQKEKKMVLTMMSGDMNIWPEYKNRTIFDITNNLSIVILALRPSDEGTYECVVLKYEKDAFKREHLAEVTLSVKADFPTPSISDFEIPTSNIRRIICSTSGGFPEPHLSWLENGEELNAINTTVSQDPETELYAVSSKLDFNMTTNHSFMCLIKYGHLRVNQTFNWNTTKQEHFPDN
Procedure: as §1

[2] = biological target: T6, Human B7-2 protein, His Tag (human, UniProt P42081 24-247)
T6 construct: Bought protein; also called ACRO CD6-H5223; not shown: His tag
T6 sequence (looked up): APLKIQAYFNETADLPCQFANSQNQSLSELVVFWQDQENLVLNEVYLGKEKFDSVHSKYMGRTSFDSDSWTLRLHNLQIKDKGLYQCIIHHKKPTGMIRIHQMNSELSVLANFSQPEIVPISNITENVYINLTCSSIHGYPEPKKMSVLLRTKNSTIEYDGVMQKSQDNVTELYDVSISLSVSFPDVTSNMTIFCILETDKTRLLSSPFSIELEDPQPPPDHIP
Procedure: as §1

[3] = biological target: T7, Human PD-L2, His Tag (confirmed by SPR) (human, UniProt Q9BQ51 20-219)
T7 construct: Bought protein; also called human PD-L2 protein; ACRO PD2-H5220; not shown: His tag
T7 sequence (looked up): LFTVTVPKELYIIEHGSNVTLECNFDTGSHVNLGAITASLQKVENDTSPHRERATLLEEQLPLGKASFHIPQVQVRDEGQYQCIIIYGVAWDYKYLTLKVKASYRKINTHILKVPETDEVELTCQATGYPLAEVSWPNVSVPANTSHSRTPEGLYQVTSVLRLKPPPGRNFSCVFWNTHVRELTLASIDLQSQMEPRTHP
Procedure: as §1

Human B7-H7, His Tag = biological target: T8, Human B7-H7, His Tag (human, UniProt Q9UM44 23-344)
T8 construct: Bought protein; also called human B7-H7 protein; ACRO B77-H52H5; not shown: His tag
T8 sequence (looked up): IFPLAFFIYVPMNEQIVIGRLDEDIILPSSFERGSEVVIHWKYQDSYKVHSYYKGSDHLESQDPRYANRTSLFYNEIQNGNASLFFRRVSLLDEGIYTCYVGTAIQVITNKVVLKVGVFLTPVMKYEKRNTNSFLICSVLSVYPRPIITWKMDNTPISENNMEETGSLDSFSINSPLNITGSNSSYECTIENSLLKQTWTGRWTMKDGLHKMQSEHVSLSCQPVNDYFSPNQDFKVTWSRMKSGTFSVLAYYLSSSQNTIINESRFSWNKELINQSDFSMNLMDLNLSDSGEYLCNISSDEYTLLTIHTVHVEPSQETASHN
Procedure: as §1

Measured: binding result

T1 sequence (Q9NZQ7 19-238 limits assumed): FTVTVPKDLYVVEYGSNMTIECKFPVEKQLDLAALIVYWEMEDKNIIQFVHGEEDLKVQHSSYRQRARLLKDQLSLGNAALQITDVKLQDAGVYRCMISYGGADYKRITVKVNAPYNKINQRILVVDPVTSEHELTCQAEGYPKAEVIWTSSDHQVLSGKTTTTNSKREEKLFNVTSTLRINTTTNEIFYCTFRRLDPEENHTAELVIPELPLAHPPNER

B1: W301088-1.145.16-z3-p1-uIgG1KV320 (antibody, V domains shown)
VH: QVQLQESGPGLVKPSQTLSLTCTVTDYSITGDYAWNWIRQHPGKGLEWIGYISYSGSTSYNPSLQSRVTISRDTSKNQFSLKLSSVTAADTAVYFCARSLGRRWYFVVWGQGTTVTVSS
VL: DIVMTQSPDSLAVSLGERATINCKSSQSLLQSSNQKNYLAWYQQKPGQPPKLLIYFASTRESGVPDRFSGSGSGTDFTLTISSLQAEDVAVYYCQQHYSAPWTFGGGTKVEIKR
notes: Humanized, PTM-removed (VL N027dQ) human IgG1 LALA kappa antibody; also called WBP301088; W301088-z3-p1
no binding: Human PD-L1, His Tag | Human B7-H2, His Tag | Human B7-H5, His Tag | Human B7-H6 | [1] | [2] | [3] | Human B7-H7, His Tag
